From patent publication US20220169728A1 (AB THERAPEUTICS, published 2022)
Where a chain is given by its changes, count along the chain named. Names may count otherwise.

B1: CD20/CD3 BsMab with common VL (SEQ ID NO: 3) N93P (bispecific antibody, V domains shown)
VH 1: QVQLQQPGAELVKPGASVKMSCKASGYTFTSYNMHWVKQTPGRGLEWIGAIYPGNGDTSYNQKFKGKATLTADKSSSTAYMQLSSLRSEDSAVYYCARSTYYGGDWYFNVWGAGTTVTVSA
VH 2: EVQLQESGAELARPGASVKMSCKASGYTFTSYTMHWVKQRPGEGLEWIGYINPSSGYTKYNQKFKDKATLTADKSSSTAYMELSSLTSEDSAVYYCARWQDYDVYFDYWGEGTTLTVSS
VL: QIVLSQSPAILSASPGEKVTMTCRASSSVSYIHWFQQKPGSSPKPWIYATSNLASGVPVRFSGSGSGTSYSLTISRVEAEDAATYYCQQWTSPPPTFGGGTKLEIKR
B2: CD20/CD3 BsMab with common VL (SEQ ID NO: 3) H33M (bispecific antibody, V domains shown)
VH 1: B1 VH 1
VH 2: B1 VH 2
VL: B1 VL with H33M, P93N
B3: CD20/CD3 BsMab with common VL (SEQ ID NO: 3) Q88V (bispecific antibody, V domains shown)
VH 1: B1 VH 1
VH 2: B1 VH 2
VL: B1 VL with Q88V, P93N
B4: CD20/CD3 BsMab with common VL (SEQ ID NO: 3) P95A (bispecific antibody, V domains shown)
VH 1: B1 VH 1
VH 2: B1 VH 2
VL: B1 VL with P93N, P95A
B5: CD20/CD3 BsMab with common VL (SEQ ID NO: 3) N93F (bispecific antibody, V domains shown)
VH 1: B1 VH 1
VH 2: B1 VH 2
VL: B1 VL with P93F
B6: CD20/CD3 BsMab with common VL (SEQ ID NO: 3) N93V (bispecific antibody, V domains shown)
VH 1: B1 VH 1
VH 2: B1 VH 2
VL: B1 VL with P93V
B7: CD20/CD3 BsMab with common VL (SEQ ID NO: 3) H33T (bispecific antibody, V domains shown)
VH 1: B1 VH 1
VH 2: B1 VH 2
VL: B1 VL with H33T, P93N
B8: CD20/CD3 BsMab with common VL (SEQ ID NO: 3) N93Y (bispecific antibody, V domains shown)
VH 1: B1 VH 1
VH 2: B1 VH 2
VL: B1 VL with P93Y
B9: CD20/CD3 BsMab with common VL (SEQ ID NO: 3) N93G (bispecific antibody, V domains shown)
VH 1: B1 VH 1
VH 2: B1 VH 2
VL: B1 VL with P93G
B10: CD20/CD3 BsMab with common VL (SEQ ID NO: 3) H33L (bispecific antibody, V domains shown)
VH 1: B1 VH 1
VH 2: B1 VH 2
VL: B1 VL with H33L, P93N
B11: CD20/CD3 BsMab with common VL (SEQ ID NO: 3) H33R (bispecific antibody, V domains shown)
VH 1: B1 VH 1
VH 2: B1 VH 2
VL: B1 VL with H33R, P93N
B12: CD20/CD3 BsMab with common VL (SEQ ID NO: 3) H33A (bispecific antibody, V domains shown)
VH 1: B1 VH 1
VH 2: B1 VH 2
VL: B1 VL with H33A, P93N
B13: CD20/CD3 BsMab with common VL (SEQ ID NO: 3) H33V (bispecific antibody, V domains shown)
VH 1: B1 VH 1
VH 2: B1 VH 2
VL: B1 VL with H33V, P93N
B14: CD20/CD3 BsMab with common VL (SEQ ID NO: 3) P95Q (bispecific antibody, V domains shown)
VH 1: B1 VH 1
VH 2: B1 VH 2
VL: B1 VL with P93N, P95Q
B15: CD20/CD3 BsMab with common VL (SEQ ID NO: 3) N93S (bispecific antibody, V domains shown)
VH 1: B1 VH 1
VH 2: B1 VH 2
VL: B1 VL with P93S
B16: CD20/CD3 BsMab with common VL (SEQ ID NO: 3) H33S (bispecific antibody, V domains shown)
VH 1: B1 VH 1
VH 2: B1 VH 2
VL: B1 VL with H33S, P93N
B17: CD20/CD3 BsMab with common VL (SEQ ID NO: 3) P95V (bispecific antibody, V domains shown)
VH 1: B1 VH 1
VH 2: B1 VH 2
VL: B1 VL with P93N, P95V
B18: CD20/CD3 BsMab with common VL (SEQ ID NO: 3) N93Q (bispecific antibody, V domains shown)
VH 1: B1 VH 1
VH 2: B1 VH 2
VL: B1 VL with P93Q
B19: CD20/CD3 BsMab with common VL (SEQ ID NO: 3) H33P (bispecific antibody, V domains shown)
VH 1: B1 VH 1
VH 2: B1 VH 2
VL: B1 VL with H33P, P93N
B20: CD20/CD3 BsMab with common VL (SEQ ID NO: 3) N93A (bispecific antibody, V domains shown)
VH 1: B1 VH 1
VH 2: B1 VH 2
VL: B1 VL with P93A
B21: CD20/CD3 BsMab with common VL (SEQ ID NO: 3) H33G (bispecific antibody, V domains shown)
VH 1: B1 VH 1
VH 2: B1 VH 2
VL: B1 VL with H33G, P93N
B22: CD20/CD3 BsMab with common VL (SEQ ID NO: 3) N93L (bispecific antibody, V domains shown)
VH 1: B1 VH 1
VH 2: B1 VH 2
VL: B1 VL with P93L
B23: CD20/CD3 BsMab with common VL (SEQ ID NO: 3) H33E (bispecific antibody, V domains shown)
VH 1: B1 VH 1
VH 2: B1 VH 2
VL: B1 VL with H33E, P93N
B24: CD20/CD3 BsMab with common VL (SEQ ID NO: 3) H33W (bispecific antibody, V domains shown)
VH 1: B1 VH 1
VH 2: B1 VH 2
VL: B1 VL with H33W, P93N
B25: CD20/CD3 BsMab with common VL (SEQ ID NO: 3) H33D (bispecific antibody, V domains shown)
VH 1: B1 VH 1
VH 2: B1 VH 2
VL: B1 VL with H33D, P93N
B26: CD20/CD3 BsMab with common VL (SEQ ID NO: 3) P95T (bispecific antibody, V domains shown)
VH 1: B1 VH 1
VH 2: B1 VH 2
VL: B1 VL with P93N, P95T
B27: CD20/CD3 BsMab with common VL (SEQ ID NO: 3) N93T (bispecific antibody, V domains shown)
VH 1: B1 VH 1
VH 2: B1 VH 2
VL: B1 VL with P93T

target: CD3 (Homo sapiens (Human), UniProt P07766 23-207; P04234 22-171; P09693 23-182); assay: cell-based or functional assay
Sequence (P07766 23-207 limits assumed, chain 1 of 3): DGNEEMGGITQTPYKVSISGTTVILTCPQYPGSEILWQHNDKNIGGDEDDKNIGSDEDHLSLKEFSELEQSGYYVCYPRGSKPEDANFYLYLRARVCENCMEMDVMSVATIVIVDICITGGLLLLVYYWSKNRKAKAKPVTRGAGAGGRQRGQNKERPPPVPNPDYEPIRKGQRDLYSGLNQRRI
Sequence (P04234 22-171 limits assumed, chain 2 of 3): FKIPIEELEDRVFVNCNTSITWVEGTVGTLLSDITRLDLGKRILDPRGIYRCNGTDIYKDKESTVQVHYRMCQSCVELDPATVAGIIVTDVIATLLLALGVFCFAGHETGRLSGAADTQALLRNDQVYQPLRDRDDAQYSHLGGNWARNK
Sequence (P09693 23-182 limits assumed, chain 3 of 3): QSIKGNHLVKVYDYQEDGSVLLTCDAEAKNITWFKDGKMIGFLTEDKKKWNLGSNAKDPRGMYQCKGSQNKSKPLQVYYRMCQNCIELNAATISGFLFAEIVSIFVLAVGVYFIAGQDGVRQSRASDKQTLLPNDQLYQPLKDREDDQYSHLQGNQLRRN

Function % 0.025 ug/ml (T cell activation, CD69 on Jurkat cells with Raji cells, against the unmutated baseline) [%] | Function % 2 ug/ml (T cell activation, CD69 on Jurkat cells with Raji cells, against the unmutated baseline) [%] | Binder
9 | 51 | B1
13 | 74 | B2
14 | 75 | B3
19 | 92 | B4
11 | 70 | B5
33 | 95 | B6
99 | 106 | B7
12 | 22 | B8
15 | 21 | B9
16 | 93 | B10
9 | 54 | B11
65 | 104 | B12
83 | 104 | B13
11 | 17 | B14
15 | 90 | B15
108 | 95 | B16
96 | 97 | B17
10 | 62 | B18
34 | 94 | B19
12 | 80 | B20
100 | 101 | B21
9 | 65 | B22
89 | 104 | B23
14 | 87 | B24
109 | 96 | B25
13 | 52 | B26
21 | 98 | B27
